Molecular target: biotin-YY1 spacer peptide (human) (UniProt P25490)
Test: SPR

Chain of SFMBT2 4MBT domain, human (domain or fragment) (Q5VUG0 whole entry, the tested form may be a part): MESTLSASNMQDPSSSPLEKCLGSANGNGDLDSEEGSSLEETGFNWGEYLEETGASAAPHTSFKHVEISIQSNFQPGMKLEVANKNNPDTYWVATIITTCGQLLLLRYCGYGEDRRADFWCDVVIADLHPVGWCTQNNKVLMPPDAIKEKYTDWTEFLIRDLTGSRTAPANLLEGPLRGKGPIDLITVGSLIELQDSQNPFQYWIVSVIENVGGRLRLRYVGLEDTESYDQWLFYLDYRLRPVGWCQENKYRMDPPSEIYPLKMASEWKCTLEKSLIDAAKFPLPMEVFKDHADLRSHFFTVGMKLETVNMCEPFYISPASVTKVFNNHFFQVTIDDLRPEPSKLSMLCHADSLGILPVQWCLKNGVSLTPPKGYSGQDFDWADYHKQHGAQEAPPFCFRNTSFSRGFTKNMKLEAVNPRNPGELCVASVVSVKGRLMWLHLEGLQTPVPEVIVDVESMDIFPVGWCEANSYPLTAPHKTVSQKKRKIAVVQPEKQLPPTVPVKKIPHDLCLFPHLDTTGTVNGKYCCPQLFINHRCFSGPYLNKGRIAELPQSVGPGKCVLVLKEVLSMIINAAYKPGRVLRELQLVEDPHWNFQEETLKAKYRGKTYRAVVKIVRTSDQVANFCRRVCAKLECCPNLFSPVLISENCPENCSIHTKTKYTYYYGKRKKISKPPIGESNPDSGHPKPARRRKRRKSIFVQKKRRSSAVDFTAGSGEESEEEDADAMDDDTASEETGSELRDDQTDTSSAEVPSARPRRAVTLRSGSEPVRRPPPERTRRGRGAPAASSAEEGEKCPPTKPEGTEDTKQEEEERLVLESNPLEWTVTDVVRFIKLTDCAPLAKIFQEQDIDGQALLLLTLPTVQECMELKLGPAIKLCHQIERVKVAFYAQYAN
Chain of biotin-YY1 spacer peptide (human) (P25490 199-228): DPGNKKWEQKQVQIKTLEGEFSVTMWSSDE

Work on “SFMBT2 4MBT domain, human (domain or fragment)” yielded a fold lower affinity than L3MBTL2 and MBTD1 of 2 fold and a fold weaker affinity than the Drosophila complex of 50 fold.

— article PMC3828522
